T1: PUF4 RNA-binding domain (Saccharomyces cerevisiae, UniProt P25339 537-888)
T1 sequence: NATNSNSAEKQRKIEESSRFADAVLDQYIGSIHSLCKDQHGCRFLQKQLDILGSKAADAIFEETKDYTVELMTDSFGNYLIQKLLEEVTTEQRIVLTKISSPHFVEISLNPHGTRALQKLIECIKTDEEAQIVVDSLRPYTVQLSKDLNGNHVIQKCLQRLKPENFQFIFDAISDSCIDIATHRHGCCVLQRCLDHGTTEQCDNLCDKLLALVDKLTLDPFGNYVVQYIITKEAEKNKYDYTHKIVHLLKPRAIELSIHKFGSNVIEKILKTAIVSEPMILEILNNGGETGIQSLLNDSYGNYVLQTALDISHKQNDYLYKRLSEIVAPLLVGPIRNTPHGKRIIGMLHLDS


Biological target: T1, PUF4 RNA-binding domain
Assay: Mg; RNA-MaP; 20 mM Na-HEPES pH 7.4, 30 mM KOAc, 0.75 mM MgCl2, 0.1% Tween-20, 5% glycerol, 0.1 mg/mL BSA, 2 mM DTT; 25 C; 0.0125-409.6 nM protein
Details: tags: N-His6-TEV cleaved; C-SNAP kept, Cy3B-labelled; label: tethered on chip by stalled RNA polymerase

Binder | Kd [nM]
UCUCUUUGCAUUAUCAUCUCUU (ssRNA) [Ib_S1_P5E.1_K5.1_C5.1_H5.1_[T3C]_A5.1_F5.1_[T9C]_T5.1] | > 2300
UCUCUUUGUUUUAUGAUCUCUU (ssRNA) [Ib_S1_P5E.1_K5.1_C5.1_H5.1_[A4T]_A5.1_F5.1_[T9G]_T5.1] | 981
Id_ii_S2_P3E.3_K3.2_C3.2_H3.2_A3.1_F3.1_T3.2_[A10G] (ssRNA) RNA: UUUGAUUAAUAUGAUAUCGUUCUUUCUCUUAUAUAUAUGUUCUUUCUCGAUAUCAUAUUAAUCUUU | 83.8
Id_ii_S2_P3E.4_K3.3_C3.2_[C-2T]_[T-1C]_H3.3_A3.1_F3.1_T3.2_[A10C] (ssRNA) RNA: UUUGAUUAAUAUGAUAUCGUUCUUUCUUCACACUAUAUCUUCUUUCUCGAUAUCAUAUUAAUCUUU | 1260
Id_ii_S2_P3E.4_K3.3_C3.2_[C-2T]_[T-1A]_H3.3_A3.1_F3.1_T3.2_[T9A]_[A10T] (ssRNA) RNA: UUUGAUUAAUAUGAUAUCGUUCUUUCUUAACACUAUAAUUUCUUUCUCGAUAUCAUAUUAAUCUUU | 2150
Id_ii_S2_P3E.4_K3.3_C3.2_[C-2A]_[T-1A]_H3.3_A3.1_F3.1_T3.2_[T9C]_[A10G] (ssRNA) RNA: UUUGAUUAAUAUGAUAUCGUUCUUUCUAAACACUAUACGUUCUUUCUCGAUAUCAUAUUAAUCUUU | > 2300
Id_ii_S2_P3E.4_K3.3_C3.2_[C-2A]_H3.3_A3.1_F3.1_T3.2_[T9C]_[A10G] (ssRNA) RNA: UUUGAUUAAUAUGAUAUCGUUCUUUCUAUACACUAUACGUUCUUUCUCGAUAUCAUAUUAAUCUUU | 116
Id_ii_S2_P3E.4_K3.3_C3.2_[C-2G]_H3.3_A3.1_F3.1_T3.2_[T9A]_[A10T] (ssRNA) RNA: UUUGAUUAAUAUGAUAUCGUUCUUUCUGUACACUAUAAUUUCUUUCUCGAUAUCAUAUUAAUCUUU | 0.478
Id_ii_S2_P3E.4_K3.3_C3.2_[C-2T]_[T-1C]_H3.3_A3.1_F3.1_T3.2_[T9C]_[A10T] (ssRNA) RNA: UUUGAUUAAUAUGAUAUCGUUCUUUCUUCACACUAUACUUUCUUUCUCGAUAUCAUAUUAAUCUUU | 1260
Id_ii_S2_P3E.4_K3.3_C3.2_[C-2G]_H3.3_A3.1_F3.1_T3.2_[T9C]_[A10C] (ssRNA) RNA: UUUGAUUAAUAUGAUAUCGUUCUUUCUGUACACUAUACCUUCUUUCUCGAUAUCAUAUUAAUCUUU | 0.875
Id_ii_S2_P3E.4_K3.3_C3.2_[C-2A]_[T-1A]_H3.3_A3.1_F3.1_T3.2_[T9A]_[A10T] (ssRNA) RNA: UUUGAUUAAUAUGAUAUCGUUCUUUCUAAACACUAUAAUUUCUUUCUCGAUAUCAUAUUAAUCUUU | > 2300
Id_ii_S2_P3E.4_K3.3_C3.2_[C-2T]_H3.3_A3.1_F3.1_T3.2_[A10G] (ssRNA) RNA: UUUGAUUAAUAUGAUAUCGUUCUUUCUUUACACUAUAUGUUCUUUCUCGAUAUCAUAUUAAUCUUU | > 2300
Id_ii_S2_P3E.4_K3.3_C3.2_[C-2A]_H3.3_A3.1_F3.1_T3.2_[T9A]_[A10G] (ssRNA) RNA: UUUGAUUAAUAUGAUAUCGUUCUUUCUAUACACUAUAAGUUCUUUCUCGAUAUCAUAUUAAUCUUU | 174
Id_ii_S2_P3E.4_K3.3_C3.2_[C-2A]_[T-1A]_H3.3_A3.1_F3.1_T3.2_[A10C] (ssRNA) RNA: UUUGAUUAAUAUGAUAUCGUUCUUUCUAAACACUAUAUCUUCUUUCUCGAUAUCAUAUUAAUCUUU | 1770
Id_ii_S2_P3E.4_K3.3_C3.2_[C-2T]_H3.3_A3.1_F3.1_T3.2_[A10C] (ssRNA) RNA: UUUGAUUAAUAUGAUAUCGUUCUUUCUUUACACUAUAUCUUCUUUCUCGAUAUCAUAUUAAUCUUU | 475
Id_ii_S2_P3E.4_K3.3_C3.2_[C-2G]_H3.3_A3.1_F3.1_T3.2_[A10C] (ssRNA) RNA: UUUGAUUAAUAUGAUAUCGUUCUUUCUGUACACUAUAUCUUCUUUCUCGAUAUCAUAUUAAUCUUU | 0.486
Id_ii_S2_P3E.4_K3.3_C3.2_[C-2T]_H3.3_A3.1_F3.1_T3.2_[T9C]_[A10T] (ssRNA) RNA: UUUGAUUAAUAUGAUAUCGUUCUUUCUUUACACUAUACUUUCUUUCUCGAUAUCAUAUUAAUCUUU | 670
Id_ii_S2_P3E.4_K3.3_C3.2_[C-2G]_H3.3_A3.1_F3.1_T3.2_[T9C]_[A10T] (ssRNA) RNA: UUUGAUUAAUAUGAUAUCGUUCUUUCUGUACACUAUACUUUCUUUCUCGAUAUCAUAUUAAUCUUU | 1.98
Id_ii_S2_P3E.4_K3.3_C3.2_[C-2G]_[T-1C]_H3.3_A3.1_F3.1_T3.2_[T9C] (ssRNA) RNA: UUUGAUUAAUAUGAUAUCGUUCUUUCUGCACACUAUACAUUCUUUCUCGAUAUCAUAUUAAUCUUU | 78
Id_ii_S2_P3E.4_K3.3_C3.2_[C-2T]_[T-1A]_H3.3_A3.1_F3.1_T3.2_[T9C]_[A10T] (ssRNA) RNA: UUUGAUUAAUAUGAUAUCGUUCUUUCUUAACACUAUACUUUCUUUCUCGAUAUCAUAUUAAUCUUU | 1860
Id_ii_S2_P3E.4_K3.3_C3.2_[C-2A]_H3.3_A3.1_F3.1_T3.2_[T9C]_[A10C] (ssRNA) RNA: UUUGAUUAAUAUGAUAUCGUUCUUUCUAUACACUAUACCUUCUUUCUCGAUAUCAUAUUAAUCUUU | 15.5
Id_ii_S2_P3E.4_K3.3_C3.2_[C-2A]_H3.3_A3.1_F3.1_T3.2_[T9C] (ssRNA) RNA: UUUGAUUAAUAUGAUAUCGUUCUUUCUAUACACUAUACAUUCUUUCUCGAUAUCAUAUUAAUCUUU | 21.7

Binder | Kd [nM]
Id_ii_S2_P3E.4_K3.3_C3.2_[C-2T]_[T-1A]_H3.3_A3.1_F3.1_T3.2_[T9A] (ssRNA) RNA: UUUGAUUAAUAUGAUAUCGUUCUUUCUUAACACUAUAAAUUCUUUCUCGAUAUCAUAUUAAUCUUU | > 2300
Id_ii_S2_P3E.4_K3.3_C3.2_[C-2A]_[T-1C]_H3.3_A3.1_F3.1_T3.2_[T9C]_[A10T] (ssRNA) RNA: UUUGAUUAAUAUGAUAUCGUUCUUUCUACACACUAUACUUUCUUUCUCGAUAUCAUAUUAAUCUUU | 1810
Id_ii_S2_P3E.4_K3.3_C3.2_[C-2A]_[T-1A]_H3.3_A3.1_F3.1_T3.2_[T9A] (ssRNA) RNA: UUUGAUUAAUAUGAUAUCGUUCUUUCUAAACACUAUAAAUUCUUUCUCGAUAUCAUAUUAAUCUUU | 2020
Id_ii_S2_P3E.4_K3.3_C3.2_[C-2T]_[T-1C]_H3.3_A3.1_F3.1_T3.2_[T9C]_[A10C] (ssRNA) RNA: UUUGAUUAAUAUGAUAUCGUUCUUUCUUCACACUAUACCUUCUUUCUCGAUAUCAUAUUAAUCUUU | 1970
Id_ii_S2_P3E.4_K3.3_C3.2_[C-2T]_[T-1C]_H3.3_A3.1_F3.1_T3.2_[T9C] (ssRNA) RNA: UUUGAUUAAUAUGAUAUCGUUCUUUCUUCACACUAUACAUUCUUUCUCGAUAUCAUAUUAAUCUUU | 417
Id_ii_S2_P3E.4_K3.3_C3.2_[C-2G]_[T-1C]_H3.3_A3.1_F3.1_T3.2_[T9A]_[A10C] (ssRNA) RNA: UUUGAUUAAUAUGAUAUCGUUCUUUCUGCACACUAUAACUUCUUUCUCGAUAUCAUAUUAAUCUUU | 31.9
Id_ii_S2_P3E.4_K3.3_C3.2_[C-2A]_[T-1C]_H3.3_A3.1_F3.1_T3.2_[T9A] (ssRNA) RNA: UUUGAUUAAUAUGAUAUCGUUCUUUCUACACACUAUAAAUUCUUUCUCGAUAUCAUAUUAAUCUUU | 1070
Id_ii_S2_P3E.4_K3.3_C3.2_[C-2G]_[T-1C]_H3.3_A3.1_F3.1_T3.2_[T9A] (ssRNA) RNA: UUUGAUUAAUAUGAUAUCGUUCUUUCUGCACACUAUAAAUUCUUUCUCGAUAUCAUAUUAAUCUUU | 38.5
Id_ii_S2_P3E.3_K3.2_C3.2_H3.2_A3.1_F3.1_T3.2_[A10C] (ssRNA) RNA: UUUGAUUAAUAUGAUAUCGUUCUUUCUCUUAUAUAUAUCUUCUUUCUCGAUAUCAUAUUAAUCUUU | 83.2
Id_ii_S2_P3E.4_K3.3_C3.2_[C-2T]_H3.3_A3.1_F3.1_T3.2_[T9G]_[A10C] (ssRNA) RNA: UUUGAUUAAUAUGAUAUCGUUCUUUCUUUACACUAUAGCUUCUUUCUCGAUAUCAUAUUAAUCUUU | 898
Id_ii_S2_P3E.4_K3.3_C3.2_[C-2A]_H3.3_A3.1_F3.1_T3.2_[T9A]_[A10T] (ssRNA) RNA: UUUGAUUAAUAUGAUAUCGUUCUUUCUAUACACUAUAAUUUCUUUCUCGAUAUCAUAUUAAUCUUU | 32.2
Id_ii_S2_P3E.4_K3.3_C3.2_[C-2T]_[T-1C]_H3.3_A3.1_F3.1_T3.2_[A10T] (ssRNA) RNA: UUUGAUUAAUAUGAUAUCGUUCUUUCUUCACACUAUAUUUUCUUUCUCGAUAUCAUAUUAAUCUUU | 940
Id_ii_S2_P3E.4_K3.3_C3.2_[C-2G]_H3.3_A3.1_F3.1_T3.2_[T9A]_[A10C] (ssRNA) RNA: UUUGAUUAAUAUGAUAUCGUUCUUUCUGUACACUAUAACUUCUUUCUCGAUAUCAUAUUAAUCUUU | 0.742
Id_ii_S2_P3E.4_K3.3_C3.2_[C-2A]_[T-1C]_H3.3_A3.1_F3.1_T3.2_[A10T] (ssRNA) RNA: UUUGAUUAAUAUGAUAUCGUUCUUUCUACACACUAUAUUUUCUUUCUCGAUAUCAUAUUAAUCUUU | 868
Id_ii_S2_P3E.3_K3.2_C3.2_H3.2_A3.1_F3.1_T3.2_[A10T] (ssRNA) RNA: UUUGAUUAAUAUGAUAUCGUUCUUUCUCUUAUAUAUAUUUUCUUUCUCGAUAUCAUAUUAAUCUUU | 72.5
Id_ii_S2_P3E.4_K3.3_C3.2_[C-2G]_H3.3_A3.1_F3.1_T3.2 (ssRNA) RNA: UUUGAUUAAUAUGAUAUCGUUCUUUCUGUACACUAUAUAUUCUUUCUCGAUAUCAUAUUAAUCUUU | 0.551
Id_ii_S2_P3E.4_K3.3_C3.2_[C-2G]_[T-1C]_H3.3_A3.1_F3.1_T3.2_[T9C]_[A10G] (ssRNA) RNA: UUUGAUUAAUAUGAUAUCGUUCUUUCUGCACACUAUACGUUCUUUCUCGAUAUCAUAUUAAUCUUU | 817
Id_ii_S2_P3E.4_K3.3_C3.2_[C-2T]_[T-1C]_H3.3_A3.1_F3.1_T3.2_[T9A]_[A10G] (ssRNA) RNA: UUUGAUUAAUAUGAUAUCGUUCUUUCUUCACACUAUAAGUUCUUUCUCGAUAUCAUAUUAAUCUUU | > 2300
Id_ii_S2_P3E.3_K3.2_C3.2_H3.2_A3.1_F3.1_T3.2 (ssRNA) RNA: UUUGAUUAAUAUGAUAUCGUUCUUUCUCUUAUAUAUAUAUUCUUUCUCGAUAUCAUAUUAAUCUUU | 54.4
UCUCUUUGCAUUAUAAUCUCUU (ssRNA) [Ib_S1_P5E.1_K5.1_C5.1_H5.1_[T3C]_A5.1_F5.1_[T9A]_T5.1] | 1400
UCUCUUUGUGUUAUGAUCUCUU (ssRNA) [Ib_S1_P5E.1_K5.1_C5.1_H5.1_[A4G]_A5.1_F5.1_[T9G]_T5.1] | 750

— article PMC9352680, “A comprehensive thermodynamic model for RNA binding by the Saccharomyces cerevisiae Pumilio protein PUF4”
